# Experimental data reported in patent WO2018134389A1.
# Target: DC-SIGN ECD immobilised on a streptactin-functionalised SPR surface (human) (UniProt Q9NNX6)
# Sequence (Q9NNX6 59-404): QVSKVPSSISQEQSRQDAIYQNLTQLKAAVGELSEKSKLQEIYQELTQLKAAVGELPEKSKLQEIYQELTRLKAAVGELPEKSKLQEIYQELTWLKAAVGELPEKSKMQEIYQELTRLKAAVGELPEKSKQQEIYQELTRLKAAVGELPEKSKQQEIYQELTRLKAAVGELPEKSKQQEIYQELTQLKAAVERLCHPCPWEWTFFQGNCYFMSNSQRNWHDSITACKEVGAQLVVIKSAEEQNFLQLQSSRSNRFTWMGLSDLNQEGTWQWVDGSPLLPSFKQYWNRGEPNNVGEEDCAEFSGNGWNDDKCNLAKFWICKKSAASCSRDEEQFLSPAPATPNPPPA
substance,measurement,value
"HCMV gB treated with a(2 to 3,6)-neuraminidase (sialic acids removed) (from UniProt P13201 25-907) (ligand)",Kd,0.025 nM
